According to patent US6500940 (SALK INSTITUTE FOR BIOLOGICAL STUDIES, dated 2002):

Experiments:
[1] = target: human Fas (human) (UniProt P25445); assay: cell-based or functional assay
[2] = target: T1, human FADD (human, UniProt Q13158 1-208, limits assumed); assay: co-immunoprecipitation and immunoblot after transient transfection
T1 construct: also called MORT-1
T1 sequence (looked up): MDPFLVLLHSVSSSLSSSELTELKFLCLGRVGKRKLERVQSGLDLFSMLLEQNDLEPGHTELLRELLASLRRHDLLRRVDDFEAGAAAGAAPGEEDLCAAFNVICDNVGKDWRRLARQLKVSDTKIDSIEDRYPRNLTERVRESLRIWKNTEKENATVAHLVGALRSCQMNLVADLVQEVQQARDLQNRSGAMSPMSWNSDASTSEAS
Description: The interaction of LFG with components of the Fas signaling pathway was investigated. Fas and LFG can be co-immunoprecipitated following transient transfection.

human Fas (human), sequence (P25445 26-335): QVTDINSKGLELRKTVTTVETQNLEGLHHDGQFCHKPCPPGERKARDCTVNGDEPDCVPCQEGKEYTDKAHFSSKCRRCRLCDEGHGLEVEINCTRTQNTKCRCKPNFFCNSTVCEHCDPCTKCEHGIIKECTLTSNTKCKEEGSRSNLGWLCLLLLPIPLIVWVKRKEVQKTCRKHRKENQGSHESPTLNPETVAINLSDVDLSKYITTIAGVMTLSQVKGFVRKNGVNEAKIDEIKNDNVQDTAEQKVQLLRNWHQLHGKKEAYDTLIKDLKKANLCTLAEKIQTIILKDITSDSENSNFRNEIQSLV

binding result [2] | Molecule | cell survival of HeLa cells 72 hr after treatment with CH11 [1]
 | mouse anti-human Fas agonistic antibody (CH11) | 17%
no binding | amino-terminal myc epitope-tagged LFG (myc-LFG) (other, not shown: small tags and cut ends, Expressed from an expression vector by transient transfection (HeLa, 293 cells) and found by immunoprecipitation and immunoblot; also called lifeguard) MTRGKLSVANKAPGTEGQQQVHGEKKEAPAVPSAPPSYEEATSGEGMKAGAFPPAPTAVPLHPSWAYVDPSSSSSYDNGFPPETMSSSPLSAGMTKKVRRVFVRKVYTILLIQLLVTLAVVALFTFCDPCQGLCSGQPGWYWASYAVFFATYLTLACCSGPRRHFPWNLILLTVFTLSMAYLTGMLSSYYNTTSVLLCLGITALVCLSVTVFSFQTKFDFTSCQGVLFVLLMTLFFSGLILAILLPFQYVPWLHAVYAALGAGVFTLFLALDTQLLMGNRRHSLSPEEYIFGALNIYLDIIYIFTFFLQLFGTNRE | 
